Measurements from patent US20240199757A1 (UNIVERSITY OF CHICAGO, published 2024).

B1: 1789 Fab (Fab, V domains shown)
VH: EVQLVESGGGLVQPGGSLRLSCAASGFNVSYSSIHWVRQAPGKGLEWVASISSSSGYTYYADSVKGRFTISADTSKNTAYLQMNSLRAEDTAVYYCARNYWGWYPFYYFAFDYWGQGTLVTV
VL: DIQMTQSPSSLSASVGDRVTITCRASQSVSSAVAWYQQKPGKAPKLLIYSASSLYSGVPSRFSGSRSGTDFTLTISSLQPEDFATYYCQQGWDYPITFGQGTKVEIKR
B2: 1789 IgG (antibody, V domains shown)
VH: EVQLVESGGGLVQPGGSLRLSCAASGFNVSYSSIHWVRQAPGKGLEWVASISSSSGYTYYADSVKGRFTISADTSKNTAYLQMNSLRAEDTAVYYCARNYWGWYPFYYFAFDYWGQGTLVTVSS
VL: B1 VL

How the values were obtained:
[1] = target: T1, Full-length human NT5E (recombinant, in-house) (human, UniProt P21589 27-549); assay: DSF thermal shift, 1.5-fold molar excess of Fab, no ATP (NT5E alone 49° C.)
T1 construct: also called hNT5E; hNT5EWT
T1 sequence: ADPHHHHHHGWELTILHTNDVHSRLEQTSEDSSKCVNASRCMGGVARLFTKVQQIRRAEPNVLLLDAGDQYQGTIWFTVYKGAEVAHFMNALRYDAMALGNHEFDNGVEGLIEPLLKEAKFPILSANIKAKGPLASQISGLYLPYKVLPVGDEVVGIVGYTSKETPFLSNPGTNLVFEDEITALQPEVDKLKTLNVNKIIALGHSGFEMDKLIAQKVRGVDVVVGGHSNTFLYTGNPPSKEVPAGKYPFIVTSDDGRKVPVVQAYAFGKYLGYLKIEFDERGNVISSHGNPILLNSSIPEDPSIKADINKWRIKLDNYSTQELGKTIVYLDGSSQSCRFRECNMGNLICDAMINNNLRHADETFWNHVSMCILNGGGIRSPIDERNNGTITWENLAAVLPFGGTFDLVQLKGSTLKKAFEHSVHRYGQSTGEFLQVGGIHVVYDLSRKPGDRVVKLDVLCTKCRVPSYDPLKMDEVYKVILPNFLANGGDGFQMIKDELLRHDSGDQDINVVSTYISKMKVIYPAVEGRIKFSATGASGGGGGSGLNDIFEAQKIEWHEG
Experimental: (§1) Thermal stability of samples was analyzed by differential scanning fluorimetry (DSF) using a real-time PCR instrument (Bio-Rad CFX384). Protein samples were mixed with 4× Sypro Orange at a final 4 μM concentration. For target/Fab complexes, 1.5-fold molar excess of Fab was used. All reactions were performed in triplicates in a 384-well plate. Thermal melting curves were monitored from 25° C. to 95° C. in steps of 0.5° C./30 s. Wavelengths of 490 and 575 nm were used for excitation and emission, respectively. The melting temperatures were inferred from the first derivative of the melting curves from the mean of triplicate runs using CFX software provided by the manufacturer.
TABLE 6 Summary of TM for hNT5EWT hNT5EDF, and hNT5E by differential scanning fluorimetry. […] Melting temperatures (TM) are for NT5E only and are represented by the mean of three replicates.

[2] = target: hNT5EDF (substrate binding knock-out variant of hNT5E) (human); assay: DSF thermal shift, 1.5-fold molar excess of Fab, no ATP (hNT5EDF alone 44° C.)
Experimental: With 1 mM ATP alone (red dashed line), the TM shifts from one transition at 49° C. to two transitions at TM 59° C. and 64° C. […] Thermal shift assays of substrate binding knock-out variants hNT5EDF (FIG. 2B) and hNT5EFF (FIG. 2C) show no change in thermal stability with the addition of ATP.
as §1

[3] = target: T2, murine NT5E expressed on 4T1 cells (murine, UniProt Q61503 29-551); assay: flow cytometry on 4T1 cells, 1 mM ATP; +ATP (1 mM), 4T1 cells
T2 construct: whole, on cells; also called mouse NT5E-expressing 4T1 cells
T2 sequence (looked up): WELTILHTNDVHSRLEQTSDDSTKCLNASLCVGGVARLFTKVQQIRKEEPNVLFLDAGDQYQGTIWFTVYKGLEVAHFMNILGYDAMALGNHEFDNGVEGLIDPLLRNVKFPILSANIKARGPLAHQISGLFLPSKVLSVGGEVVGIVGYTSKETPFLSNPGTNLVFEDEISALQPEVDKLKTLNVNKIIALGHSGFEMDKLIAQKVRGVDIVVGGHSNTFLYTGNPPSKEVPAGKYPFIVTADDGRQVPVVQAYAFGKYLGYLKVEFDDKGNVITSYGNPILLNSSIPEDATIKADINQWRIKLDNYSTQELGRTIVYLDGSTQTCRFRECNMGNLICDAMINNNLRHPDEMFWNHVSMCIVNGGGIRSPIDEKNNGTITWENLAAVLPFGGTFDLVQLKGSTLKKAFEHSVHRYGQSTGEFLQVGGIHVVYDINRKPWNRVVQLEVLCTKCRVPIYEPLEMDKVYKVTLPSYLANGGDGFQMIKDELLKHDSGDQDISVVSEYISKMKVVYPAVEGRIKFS
Experimental: Human MDA-MB-231 cells and murine 4T1 cells were grown to 90% confluency, detached with 5 mM EDTA for 15 min at 37° C. and then resuspended in 37° C. lx PBS (#10010031, Gibco) supplemented with 1% FBS and 1OpM ZnCl2. Separate working buffers (WB) of PBS and 1% FBS with or without fixed nucleotide concentrations were used throughout all washing steps to maintain constant condition. In 96-well plates (#3799, Costar), 0.2×10⁶ cells were added per well. The plates were spun at 500×g for 5 min and the supernatant was removed. Anti-NT5E antibodies were diluted to the desired concentration in 100 μL WB, added to the cells and the plates were incubated for 20 min at 37° C. Plates were spun and cells were washed twice with WB then spun a second time. Cells were stained with 100 μL of secondary antibody (Alexa Fluor 647 AffiniPure Goat Anti-Human IgG, F(ab′)2 fragment specific, #109-605-006, Jackson, 1:200) dilution and plates were incubated for 20 min at 37° C. Cells were washed twice with WB then fixed on ice with WB supplemented with 0.5% PFA. Fixing solution was removed by centrifugation and cells were resuspended in cold 1× PBS. Samples were analyzed by flow cytometry using CytoFLEX (Beckman Coulter) and mean fluorescence intensity (MFI) data was extracted using FlowJo software. Resulting binding data was plotted using OriginLab.

| Binder | TM of NT5E in the presence of the Fab [1] [° C.] | TM of NT5E in the presence of the Fab [2] [° C.] | EC50 [3] [nM] |
| --- | --- | --- | --- |
| B1 | 48 | 48 | – |
| B2 | – | – | 37 |
